The results in this text go back to publication PMC3605307.

Numbering of substitutions follows the chain as printed. Names may count otherwise.

T1: Recombinant UL141 ectodomain (soluble, released from the Fc fusion), Q6RJQ3
T1 chain: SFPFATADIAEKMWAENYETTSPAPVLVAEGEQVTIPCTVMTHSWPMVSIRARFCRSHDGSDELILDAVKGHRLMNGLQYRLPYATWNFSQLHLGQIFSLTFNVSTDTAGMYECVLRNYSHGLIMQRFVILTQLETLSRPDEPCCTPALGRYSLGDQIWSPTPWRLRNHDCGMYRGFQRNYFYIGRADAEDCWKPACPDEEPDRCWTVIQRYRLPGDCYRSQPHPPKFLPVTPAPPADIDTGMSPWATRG

B1: Human TRAIL-R2-Fc fusion protein (wild type), O14763 M152A; R154A; K155A (protein)
chain: QQDLAPQQRAAPQQKRSSPSEGLCPPGHHISEDGRDCISCKYGQDYSTHWNDLLFCLRCTRCDSGEVELSPCTTTRNTVCQCEEGTFREEDSPEACAACRTGCPRGMVKVGDCTPWSDIECVHKESG
B2: Human TRAIL-R2-Fc fusion protein (wild type), O14763 K155A (protein)
chain: B1 chain with A95M, A97R
B3: Human TRAIL-R2-Fc fusion protein (wild type), O14763 P150A (protein)
chain: B1 chain with P93A, A95M, A97R, A98K
B4: Human TRAIL-R2-Fc fusion protein (wild type), O14763 M152A (protein)
chain: B1 chain with A97R, A98K
B5: Human TRAIL-R2-Fc fusion protein (wild type), O14763 R154A (protein)
chain: B1 chain with A95M, A98K

The assay concerns the target T1, Recombinant UL141 ectodomain (soluble, …). Description: SPR. Particulars: chain shown with the change.
Broadly, the Kd is the equilibrium constant for the complex coming apart. Take B1: the Kd was 7 nM.
Then B2, with 8 nM; and B3, with 8 nM; and B4, with 7 nM.
Then B5, with 6 nM.
